# Tests used:
# [1] = target: Collagen type IV from human placenta, full length (human) (UniProt P02462); experiment: SPR; BIAcore 2000, CIV or CB3 immobilised on CM5 chip by amine coupling, M3-protein injected at 6.25-50 µg/ml, 10 mM HEPES, 100 mM NaCl, pH 7.4; apparent dissociation constants
# [2] = target: M3-protein heterologously expressed on the surface of S. gordonii GP1221 (SGO M3) (S. pyogenes | not stated); experiment: radioligand binding; about 14 ng 125I-CIV or 125I-CB3 added to 250 µl bacterial suspension (S. gordonii expressing M3), room temperature 45 min, pellet-associated radioactivity as percentage of input
Substance,Kd [1] [nM],percent of the 125I-labeled ligand bound [2] [%]
GST-M3-protein (recombinant streptococcal M-protein type 3) (natural protein),5,–
"Collagen type IV from human placenta, full length (from UniProt P02462 28-1669; P08572 26-1712) (complex)",–,> 80
Cyanogen bromide fragment 3 (CB3) of collagen type IV (domain or fragment),–,> 80

# Source: article PMC2646144
